Test results published in publication PMC3873893.

Target: GST-WWCA (bovine N-WASP WWCA, A403-D505) (bovine) (UniProt Q95107)
Sequence of UniProt Q95107 (Q95107 403-505): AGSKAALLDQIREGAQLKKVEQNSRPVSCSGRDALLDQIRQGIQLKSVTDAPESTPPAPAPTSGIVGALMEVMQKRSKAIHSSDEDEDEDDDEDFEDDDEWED

For “rabbit skeletal muscle actin (Mg-ATP actin; filament barbed ends) (from UniProt P68135 1-377) (natural protein)”, the barbed-end rate of filaments tethered to WWCA nanofibers, 1 μM actin, 1 mM Mg^2+ was 21.4 subunits/s.
